Experimental findings from US20240025997A1 (NGM BIOPHARMACEUTICALS, published 2024) are described below.

The target in test [1] is T1, human ILT4 on cells (human, UniProt Q8N423 22-597).
T1 construct: also called LILRB2; human ILT4 expressed on 293T cells
The test can be described thus: flow cytometry, fluorescently labelled antibody on immune cell subsets of PBMC / red-cell-depleted whole blood. The method, then:
(§1) Flow cytometry analysis of blood immune cells was performed on human and cyno PBMC and whole blood. PBMC were prepared from a leukopak (Allcells Inc.) by centrifugation through ficoll, washing with PBS and freezing in cryopreservation buffer in liquid nitrogen until use. Whole blood (Allcells Inc.) was obtained fresh and red blood cells (RBC) depleted using ammonium chloride RBC lysing solution (Biolegend). PBMC or whole blood samples were stained with a fluorescently labeled antibody panel to distinguish various immune subsets (monocytes, B cells, NK cells, CD4+ and CD8+ T cells, neutrophils and eosinophils). Samples were further stained with fluorescently labeled isotype, 27F9 (ILT2 specific), 48A5 (ILT4 specific), 73D1, and Hz73D1.v1. The number of ILT2 and ILT4 molecules per cell of each immune subset was estimated by incubation with Quantum Simply Cellular microspheres followed by flow cytometry analysis.

For test [2], the target named is T2, human ILT2 on cells (human, UniProt Q8NHL6 24-650).
T2 construct: also called LILRB1; human ILT2 expressed on 293T cells
Described as above. Here is the method: as §1

Another test concerns the target Human ILT4-Fc (human, UniProt Q8N423 22-460). The test can be described thus: SPR (Biacore) competition: blocking of human ILT4-Fc binding to HLA-A, 25 C. Here is the method: (§2) In addition to the reporter cell system, the inhibitory activity of anti-ILT2/ILT4 antibodies towards the interaction between ILT2 and MHC I molecules, and the interaction between ILT4 and MHC I molecules was evaluated using the Biacore system. Human ILT2-Fc and ILT4-Fc were used as target receptors and their interaction with an exemplary MHC-I molecule (HLA-A) was assayed in the presence or absence of an exemplary anti-ILT2/ILT4 antibody Hz73D1.v1 at 25° C. Anti-human ILT2 (clone 27F9) or ILT4 (clone 48A5) antibodies were used as tool reagents to dissect ILT2- and ILT4-specific blocking activities. Anti-IL2/ILT4 antibodies produced a dose-dependent reduction in the interaction between ILT2 and HLA-A, as well as between ILT4 and HLA-A. IC50s of the antibodies tested are shown in Table 16.
(In general: SPR reads the build-up and loss of mass on a sensor chip optically.)

Test [3] addresses T3, soluble human ILT4-ECD (human, UniProt Q8N423 22-460).
T3 construct: also called LILRB2 extracellular domain
The test can be described thus: SPR (Biacore), antibody captured on Protein A chip, soluble ILT-ECD injected (1.6-200 nM), 25 C. Here is the method: (§3) The binding affinities of anti-ILT2 and anti-ILT4 antibodies were measured using a Biacore system (GE Healthcare LifeSciences). Equilibrium dissociation constant (KD) measurements were carried out with purified antibodies to evaluate their binding to human ILT2, human ILT4, and rhesus ILT2. Briefly, purified anti-ILT2 antibody 27F9, anti-ILT4 antibodies 47C8 and 48A5, and anti-ILT2/ILT4 antibodies 47H6, 51A1, 64A12, 73C4, and 73D1 were captured on a Sensor Chip Protein A (GE HealthCare). The surface of the Biacore Sensor Chip Protein A consists of a carboxymethylated dextran matrix with a recombinant Protein A variant covalently attached. Soluble human ILT2-ECD, human ILT4-ECD, or rhesus ILT2-ECD were injected at a flow rate of 30 μL/min at 25° C. The ILT2 or ILT4 proteins were used at concentrations ranging from 1.6-200 nM in PBS-P buffer with 2 fold dilutions. Kinetic data were collected over time and fit using the simultaneous global fit equation to yield affinity constants (KD values) for each antibody.

Test [4] deals with T4, human ILT2 chimeric reporter receptor (ILT2 extracellular domain fused to PILRbeta … (human, UniProt Q8NHL6 24-461)).
T4 construct: On the surface of NFAT-GFP reporter cells; associates with DAP12; also called ILT2 reporter cells; Human ILT2 reporter construct; not shown: The PILRbeta transmembrane/intracellular domain
Description: reporter cell assay (not a direct binding assay): human ILT2 reporter cells co-cultured with Raji cells, %GFP+ by FACS. The method, then:
The ability of anti-ILT2/ILT4 antibodies to inhibit the interaction between ILT2 and/or ILT4 and MHC I molecules was evaluated using a reporter cell system. […] In this chimeric receptor system, the extracellular domain of the receptor of interest (e.g., ILT2 or ILT4) is fused with the transmembrane/intracellular domain of PILRβ that associates with the adaptor protein DAP12. When the chimeric receptor (e.g., ILT2 or ILT-4) is activated by binding to a ligand (e.g., MHC I molecule), DAP12 becomes phosphorylated and activates an NFAT-responsive promoter which drives GFP expression (see, e.g., Deng et al., 2014, Blood, 124:924-935).
Reporter cells were washed after staining and resuspended at 1×10⁶ cells/ml in X-VIVO™ 15 media (Lonza). […] For assays with Raji cells: anti-ILT2 antibody 27F9, anti-ILT4 antibody 48A5, anti-ILT2/ILT4 antibody 73D1 and Hz73D1.v1, and a control antibody were serially diluted and 50 μl was added to each well of a 96-well flat-bottom cell culture plate. […] The plates were incubated overnight at 37° C. The next day, reporter cells were assayed for GFP expression by FACS.

Test [5] concerns the target T3, soluble human ILT4-ECD. The test can be described thus: Biacore competition: antibody titrated against 20 nM ILT4-ECD, mixture injected over biotinylated HLA-A*1101 on a NeutrAvidin chip; blocked ligand HLA-A*1101. The method, then:
(§4) As part of the characterization process, the ability of exemplary antibodies to inhibit or block the interaction of ILT2 or ILT4 with their natural ligands was evaluated in competition experiments using a Biacore system. As described herein, the natural ligands of ILT2 and ILT4 include, but are not limited to, HLA class I molecules, including HLA-A, HLA-B, HLA-C, HLA-E, and HLA-G. Biotinylated HLA-A*1101 was captured in high amounts on a NeutrAvidin chip surface. Antigen-antibody complexes were prepared with (i) ILT2-ECD and anti-ILT2 antibody 27F9, anti-ILT4 antibody 48A5, or anti-ILT2/ILT4 antibody Hz73D1.v1 and (ii) ILT4-ECD and anti-ILT2 antibody 27F9, anti-ILT4 antibody 48A5, or anti-ILT2/ILT4 antibody Hz73D1.v1. The antibody concentration of each antibody was titrated from 0.09-100 nM and the concentration of human ILT2-ECD or ILT4-ECD was kept constant at 20 nM. The complexes were mixed in a 96-well microplate and each was injected onto the HLA-A-coated chip surface. The measured signal (response unit, RU) was plotted against the antibody concentration.

The target in test [6] is T5, soluble human ILT2-ECD (human, UniProt Q8NHL6 24-461).
T5 construct: also called LILRB1 extracellular domain
Description: Biacore competition: antibody titrated against 20 nM ILT2-ECD, mixture injected over biotinylated HLA-A*1101 on a NeutrAvidin chip. The method, then: as §4

Test [7] deals with T5, soluble human ILT2-ECD. Description: SPR (Biacore) as described in Example 3. Here is the method:
as §3
(§5) The binding affinities of the humanized antibodies to human ILT2 and human ILT4 were measured using a Biacore system as described herein. The binding affinities of antibodies Hz47H6.v2, Hz64A12, and Hz73D1.v1 are shown in Table 11 as compared with the parental antibodies.

Test [8] deals with T3, soluble human ILT4-ECD. Description: SPR (Biacore) as described in Example 3. The method, then: as §3, §5
Another test concerns the target Human ILT2-Fc (human, UniProt Q8NHL6 24-461, limits assumed). The test can be described thus: SPR (Biacore) competition: blocking of human ILT2-Fc binding to HLA-A, 25 C. The method, then: as §2
Test [9] addresses T1, human ILT4 on cells. The test can be described thus: cell-based or functional assay.
Test [10] has as its target T5, soluble human ILT2-ECD. The test can be described thus: SPR (Biacore), antibody captured on Protein A chip, ILT protein injected, 25 C.
Test [11] deals with T3, soluble human ILT4-ECD. The description is as above.
Test [12] has as its target T6, cynomolgus monkey ILT2 on cells (cynomolgus monkey).
T6 construct: also called cyno ILT2; ILT2 on cyno CD14+ monocytes
Description: flow cytometry, fluorescently labelled antibody on CD14+ monocytes of cyno PBMC (2 donors), geometric MFI. The method, then: The binding of anti-ILT2/ILT4 antibodies to monocytes was evaluated. The binding of exemplary anti-ILT2/ILT4 antibody 73D1 and the humanized version Hz73D1.v1 to the CD14+ monocyte population of human and cyno PBMC were determined by flow cytometry analysis. Briefly, human or cyno PBMCs (from 2 donors each) were thawed, washed in media (RPMI, 10% FBS, L-glutamine, pen/strep), and resuspended in fresh media. PBMCs were stained with a cocktail of labeled antibodies to differentiate between the different cell types. 1×10⁶ cells/well were stained with fluorescently-labelled 73D1 or Hz73D1.v1 antibody and incubated on ice. The cells were washed with ice-cold reagents and immediately analyzed by flow cytometry. The geometric mean fluorescence intensity for CD14+ monocytes was calculated for each sample. […] For example, the 50% effective concentration (EC₅₀) of Hz73D1.v1 was 8.8 nM with human monocytes and 1.8 nM with cyno monocytes.

For test [13], the target named is T1, human ILT4 on cells. The test can be described thus: cell-based or functional assay. This is another data set of the same source.
Test [14] addresses T2, human ILT2 on cells. Description: cell-based or functional assay.
In test [15] the target is T5, soluble human ILT2-ECD. The test can be described thus: Biacore competition: antibody titrated against 20 nM ILT2-ECD, mixture injected over biotinylated HLA-A*1101 on a NeutrAvidin chip; blocked ligand HLA-A*1101. The method, then:
as §4

The term IC50 denotes the concentration that inhibits the measured activity by half. The term Kd denotes the equilibrium constant for the complex coming apart. One may read the koff as the first-order rate constant of dissociation. Broadly, the kon is the rate constant with which the complex forms.

T3 sequence (Q8N423 other isoform, or with tags, fused parts or gaps): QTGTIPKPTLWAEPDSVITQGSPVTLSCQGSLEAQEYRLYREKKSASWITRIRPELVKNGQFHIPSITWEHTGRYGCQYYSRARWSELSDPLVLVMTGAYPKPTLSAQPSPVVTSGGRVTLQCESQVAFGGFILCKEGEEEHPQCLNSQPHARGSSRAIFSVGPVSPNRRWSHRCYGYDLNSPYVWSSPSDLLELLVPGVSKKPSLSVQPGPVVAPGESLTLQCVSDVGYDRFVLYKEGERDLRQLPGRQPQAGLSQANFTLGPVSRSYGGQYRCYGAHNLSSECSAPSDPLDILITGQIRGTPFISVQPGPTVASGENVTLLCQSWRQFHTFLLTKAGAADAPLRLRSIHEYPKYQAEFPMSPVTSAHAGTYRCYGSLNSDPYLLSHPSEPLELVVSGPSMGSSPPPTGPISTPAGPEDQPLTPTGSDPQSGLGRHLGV
T1 sequence (Q8N423 other isoform, or with tags, fused parts or gaps): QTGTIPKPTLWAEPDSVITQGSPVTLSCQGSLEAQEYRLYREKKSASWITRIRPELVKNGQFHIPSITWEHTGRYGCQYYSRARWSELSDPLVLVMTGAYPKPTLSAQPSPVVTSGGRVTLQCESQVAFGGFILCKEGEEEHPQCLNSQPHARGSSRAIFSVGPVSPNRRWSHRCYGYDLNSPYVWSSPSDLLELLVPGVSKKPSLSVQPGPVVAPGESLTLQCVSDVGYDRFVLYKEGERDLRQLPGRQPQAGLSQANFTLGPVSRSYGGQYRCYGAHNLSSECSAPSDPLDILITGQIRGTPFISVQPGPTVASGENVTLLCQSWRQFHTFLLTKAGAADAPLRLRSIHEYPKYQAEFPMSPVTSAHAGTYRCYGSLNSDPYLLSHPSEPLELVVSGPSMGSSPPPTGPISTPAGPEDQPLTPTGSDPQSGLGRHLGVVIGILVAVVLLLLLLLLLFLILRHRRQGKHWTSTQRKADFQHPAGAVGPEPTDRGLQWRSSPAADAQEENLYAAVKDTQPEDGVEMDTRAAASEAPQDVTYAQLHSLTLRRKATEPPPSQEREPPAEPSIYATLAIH
T5 sequence (Q8NHL6 24-461): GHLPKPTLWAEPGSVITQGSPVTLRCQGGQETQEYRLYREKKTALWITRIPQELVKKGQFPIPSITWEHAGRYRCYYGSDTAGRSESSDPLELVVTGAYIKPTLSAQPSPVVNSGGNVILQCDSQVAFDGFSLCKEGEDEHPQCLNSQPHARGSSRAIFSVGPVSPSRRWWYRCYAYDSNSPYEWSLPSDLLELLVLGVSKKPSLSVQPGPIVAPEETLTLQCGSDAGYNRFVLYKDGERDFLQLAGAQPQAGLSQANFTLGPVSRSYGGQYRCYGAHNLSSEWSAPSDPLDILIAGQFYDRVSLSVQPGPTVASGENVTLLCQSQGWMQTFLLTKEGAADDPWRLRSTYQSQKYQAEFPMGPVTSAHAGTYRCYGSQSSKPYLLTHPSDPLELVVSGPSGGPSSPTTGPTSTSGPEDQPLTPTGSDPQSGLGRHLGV
T2 sequence (Q8NHL6 24-650): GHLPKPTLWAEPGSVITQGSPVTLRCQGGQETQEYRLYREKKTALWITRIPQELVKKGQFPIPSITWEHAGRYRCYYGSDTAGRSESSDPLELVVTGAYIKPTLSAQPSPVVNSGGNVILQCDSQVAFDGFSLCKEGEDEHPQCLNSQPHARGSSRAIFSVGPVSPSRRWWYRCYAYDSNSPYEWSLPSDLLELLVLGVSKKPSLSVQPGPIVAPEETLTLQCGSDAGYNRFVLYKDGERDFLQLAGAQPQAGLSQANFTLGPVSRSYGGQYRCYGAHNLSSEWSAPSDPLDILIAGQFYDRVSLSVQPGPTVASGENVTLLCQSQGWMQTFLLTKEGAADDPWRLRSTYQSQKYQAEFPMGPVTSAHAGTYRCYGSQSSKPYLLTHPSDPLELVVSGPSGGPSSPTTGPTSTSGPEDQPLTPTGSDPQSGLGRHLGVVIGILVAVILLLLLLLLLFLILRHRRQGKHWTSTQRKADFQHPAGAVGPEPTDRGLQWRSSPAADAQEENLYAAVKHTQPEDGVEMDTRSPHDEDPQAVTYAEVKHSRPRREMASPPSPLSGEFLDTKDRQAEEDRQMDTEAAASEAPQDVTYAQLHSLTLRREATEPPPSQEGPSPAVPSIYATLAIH
T4 sequence (Q8NHL6 24-461 limits assumed, change not shown): as the sequence (Q8NHL6 24-461) above
Chain of Human ILT2-Fc (Q8NHL6 24-461 limits assumed): as the sequence (Q8NHL6 24-461) above
T6 sequence (chain, as listed by the source): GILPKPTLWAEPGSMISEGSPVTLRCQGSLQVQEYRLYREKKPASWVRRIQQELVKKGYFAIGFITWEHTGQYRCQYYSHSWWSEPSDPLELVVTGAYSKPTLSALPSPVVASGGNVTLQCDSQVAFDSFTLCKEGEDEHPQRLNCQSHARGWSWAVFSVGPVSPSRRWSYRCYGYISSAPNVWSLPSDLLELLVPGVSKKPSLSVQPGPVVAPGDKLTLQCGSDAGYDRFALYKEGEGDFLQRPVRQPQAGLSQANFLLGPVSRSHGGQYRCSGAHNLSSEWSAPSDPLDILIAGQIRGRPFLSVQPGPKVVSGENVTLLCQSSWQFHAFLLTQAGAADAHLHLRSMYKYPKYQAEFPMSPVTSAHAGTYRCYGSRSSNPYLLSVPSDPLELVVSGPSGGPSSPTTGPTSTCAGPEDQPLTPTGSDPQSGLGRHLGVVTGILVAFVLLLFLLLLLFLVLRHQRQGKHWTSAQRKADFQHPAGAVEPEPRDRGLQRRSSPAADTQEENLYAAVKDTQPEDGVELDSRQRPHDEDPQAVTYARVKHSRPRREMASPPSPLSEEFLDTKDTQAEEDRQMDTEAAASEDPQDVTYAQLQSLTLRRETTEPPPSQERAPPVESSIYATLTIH

B1: anti-ILT4 antibody 48A5 (antibody, V domains shown)
VH: QIQLVQSGPELKKPGETVKISCKASGYTFTNYGMNWVKQAPGKGLKWMGWINTYIGEPIYADDFKGRFAFSLETSASTAYLQINNLKNEDMATYFCARRSDYDGYAMDYWGQGTSVTVSS
VL: DIVMSQSPSSLAVSVGERVTMSCKSSQSLLYSGNQKNYLAWYQQKPGQSPKLLIYWASTRESGVPDRFTGSGSGTDFTLTISSVKAEDLAVYYCQQHDSYPTFGGGSRLEIK
notes: Mouse hybridoma antibody; also called clone 48A5; anti-ILT4 (48A5)
For the molecule B1, the binding result is “binds” with human ILT4 on cells [1], “no binding (tested: not given)” with human ILT2 on cells [2], “no binding (tested: Log nM about 1.5 (about 30 nM))” in test [4] and “no binding (tested: about 200 nM)” with soluble human ILT2-ECD [6]. The 50% inhibitory concentration (IC50) with Human ILT4-Fc was found to be 8.4 nM. In the test with soluble human ILT4-ECD [3], this molecule gave a Kd of 0.026 nM. In addition, in the test with soluble human ILT4-ECD [3], the koff stood at 2.1e-05 s⁻¹. The same molecule showed a kon with soluble human ILT4-ECD [3] of 810000 M⁻¹ s⁻¹. Moreover, the “IC50 (read off the curve)” value with soluble human ILT4-ECD [5] is ~20 nM.

B2: humanized anti-ILT2/ILT4 antibody Hz73D1.v1 (antibody, human IgG1, kappa, N297G, V domains shown)
VH: QVQLVQSGAEVKKPGASVKVSCKASGYTFTDYYINWVRQAPGQGLEWMGNVNPNDGGTTYNQKFKGRVTMTTDTSTSTAYMELRSLRSDDTAVYYCARREIYFYGTIYYYAMDYWGQGTLVTVSS
VL: DIQLTQSPSFLSASVGDRVTITCRASESVDYYGNSFMYWYQQKPGKAPKLLIYFASNLESGVPSRFSGSGSGTEFTLTISSLQPEDFATYYCQQNNEDPWTFGGGTKVEIKR
notes: Human IgG1 constant region with G at position 297, human kappa; also called Hz73D1.vi
With B2, in the test with soluble human ILT2-ECD [7], the dissociation constant (Kd) was 3 nM, the koff was determined as 0.00025 s⁻¹ and the on-rate (kon) was 85000 M⁻¹ s⁻¹. In the test with soluble human ILT4-ECD [8], this molecule returned a Kd of 0.75 nM, a koff of 0.00027 s⁻¹ and a kon of 360000 M⁻¹ s⁻¹. The molecule further registered a 50% inhibitory concentration (IC50) with Human ILT2-Fc of 10 nM. For the same molecule, in the test with human ILT4 on cells [9], the “EC50 (nM), TNFalpha secretion of tolerized dendritic cells, LPS + Cyclosporine” value is 0.2 nM; the “EC50 (nM), TNFalpha secretion of tolerized dendritic cells, LPS + IL-6” value turned out to be 0.14 nM; the “EC50 (nM), TNFalpha secretion of tolerized dendritic cells, LPS + IL-10” value came to 1.2 nM; the “EC50 (nM), TNFalpha secretion of tolerized dendritic cells, LPS + PGE2” value stood at 0.44 nM. Moreover, in the test with human ILT4 on cells [9], the “EC50 (nM), TNFalpha secretion of tolerized dendritic cells, LPS + Rapamycin” value stood at 0.15 nM; the “EC50 (nM), TNFalpha secretion of tolerized dendritic cells, LPS + TGFβ” value worked out at 0.1 nM; the “EC50 (nM), TNFalpha secretion of tolerized dendritic cells, LPS + VitD3/Dex” value amounted to 0.4 nM. In the test with soluble human ILT2-ECD [10], binding was put at a Kd of 1.03 nM, the koff was 4.85e-05 s⁻¹ and the kon stood at 47200 M⁻¹ s⁻¹. In the test with soluble human ILT4-ECD [11], this molecule yielded a Kd of 0.205 nM, a dissociation rate constant (koff) of 4.6e-05 s⁻¹ and an association rate constant (kon) of 220000 M⁻¹ s⁻¹. Besides, the binding result in test [12] is listed as “binds”. The same molecule came in with an IC50 in the test with Human ILT4-Fc of 9.4 nM. Further, in the test with human ILT4 on cells [13], the “EC50, GM-CSF secretion of LPS-stimulated human PBMC” value came out at 1.5 nM and the “EC50, TNFalpha secretion of LPS-stimulated human PBMC” value turned out to be 0.76 nM. Further, in the test with human ILT2 on cells [14], the “EC50, NKL cytolytic activity against 721.221-HLA-A*0201 target cells” value stood at 0.13 nM; the “EC50, NKL cytolytic activity against 721.221-HLA-G target cells” value turned out to be 2.4 nM; the “percent CD137+ NK cells, ADCC assay with CAL-27 cells and anti-EGFR antibody” value amounted to 1.8 fold. Further, the “IC50 (read off the curve)” value in the test with soluble human ILT4-ECD [5] is ~9 nM. Further, in the test with soluble human ILT2-ECD [15], the “IC50 (read off the curve)” value is ~9 nM.
